Source: patent US20250027068

Biological target: pooled human IgG (human IgG1,2,3 and 4)

Row | Protein | Enzyme Activity Endpoint Assay: Fab′2 [ng/µL] | Enzyme Activity Endpoint Assay: Fc [ng/µL] | Enzyme Activity Endpoint Assay: IgG [ng/µL] | Enzyme Activity Endpoint Assay: scIgG [ng/µL] | Enzyme Activity Endpoint Assay (purified): Fab′2 [ng/µL] | Enzyme Activity Endpoint Assay (purified): Fc [ng/µL] | Enzyme Activity Endpoint Assay (purified): IgG [ng/µL] | Enzyme Activity Endpoint Assay (purified): scIgG [ng/µL]
1 | PRT-491 (protein) MVTSVWTKGVTPPTDFIYGEDVLHAPYKAGQGWYDITKTFNGKDNLLCGAATAGNMLHWWFDQNKEQIENYLKKHPEKQKIIFNNQELFDLKAAIDTKDSQLDSKLFEYFKEKAFPYLSTKHLGVFPDHVIDMFINGYRLSLTNHGPTPVKRGSKDKRGGIFDAVFTRGVQSKLLTNRHDLKNKTLKEISDLIKQELTEGKALGISHTYANVRINHVINLWGADFDAEGNLEAIYVTDSDTNASIGMKKYFVGVNSNGKVAISAKEIEEDNIGAQVLGLFTLSTGQDIWNQTNLEHHHHHH | 769 | 260 | 140 | 331 |  |  |  | 
2 | PRT-374 (protein) MSQTEDSESLQRLRDIEDFQAEKKKQNVVYTKWLDGVDVKDHDFRKIVDGNEAYYATPLLNGRGFYDINKDFNRDNDKCAAAVAANMFHYWLDRNRDNVDRFLRQNPEKHGIIELPDGQLKLSDFLNTYESDDGYRDKSKLFDFISENFNGPVWTDKLLDNYINGYAYNYKYGRTIEDSTKNTSKINFFKEVFNEKILTNNHSIRNQNELSVLLSEALYTGKAIGLSYGPAGLRHSLGHIISVWGADLDADGNVVAIYVTDSDDKKLTIGDERVGLKRYKISTDDEGRLRLTAYEETHNTGGQIRGLWTLDTGKQAWADYFDKTEQTGTDQAEQ |  |  |  |  | 985 | 536 | 0 | 379
3 | PRT-365 (protein) MSQTEDSESLQRLRDIEDFQAEKKKQNVVYTKWLDGVDVKDHDFRKIVDGNEAYYATPLLNGRGFYDINKDFNRDSDKCAAAVAANMFHYWLDRNRDNVDRFLRQNPEKHGIIELPDGQLKLSDFLNTYESDDGYRDKSKLFDFISENFNGPVWTDKLLDNYINGYAYNYKYGRLIEDPTKNTSKINFFKEVFNEKILTNNHSIRNQNELSVLLSEALYTGKAIGLSYGPAGTRHSLGHIISVWGADLDADGNVVAIYVTDSDDKKLTIGDERVGLKRYKISTDDEGRLRLTAYEETHNTGGQIRGLWTLDTGKQAWADYFDKTEQTGTDQAEQ |  |  |  |  | 735 | 385 | 0 | 312
4 | PRT-372 (protein) MSQTEDSESLQRLRDIEDFQAEKKKQNVVYTKWLDGVDVKDHDFRKIVDGNSAYYATPLLNGRGFYDINKDFNRDNDKCAAAVAANMFHYWLDRNRDNVDRFLRQNPEKHGIIELPDGQLKLSDFLNTYESDDGYRDKSKLFDFISENFNGPVWTDKLLDNYINGYAYNSKYGRTIEDSTKNTSKINFFKEVFNEKILTNNHSIRNQNEFSVLLIEALYTGKAIGLSYGPAGLRHGLGHIISVWGADLDADGNVVAIYVTDSDDKKLTIGDERVGLKRYKISTDDEGRLRLTAYEETHNTGGQIRGLWTLDTGKQAWADYFDKTEQTGTDQAEQ | 0 | 218 | 122 | 560 |  |  |  | 
5 | PRT-348 (protein) MSQTEDSESLQRLRDIEDFQAEKKDQNVVYTKWLDGVDVKDHDFRKIVDGNIAYYATPLLNGRGWYDINKDFNRDSDKCAAAVAANMFHYWLDINRDNVDRFLRQNPEKHGIIELPDGQLKLSDFLNTYESDHGYRDKSKLFDFISENFNGPVWTDKLLDNYINGYAYNYKYGRTIEDPTKNTSKINFFKEVFNEKILTNNHSIRNQNEFSVLLIEALYTGKAIGLSYGPAGLRHSLGHIISVWGADLDADGNVVAIYVTDSDDKKLTIGDERVGLKRYKISTDDENRLRLTAYEETHNTGGQVRGLWTLDTGKYAWADYFDKTEQTGTDQAEQ |  |  |  |  | 736 | 415 | 0 | 325
6 | PRT-357 (protein) MSQTEDSESLQRLRDIEDFQAEKEKQNVVYTKWLDGVDVKDHDFRKIVDGNSAYYATPLLNGRGWYDINKDFNRDSDKCAAAVAANMFHYWLDRNRDNVDRFLRQNPEKHGIIELPDGQLKLSDFLNTYESDDGYRDKSKLFDFISNNFNGPVWTDKLLDNYINGYAYNYKYGRTIEDPTKNTSKINFFKEVFNEKILTNNHSIRNQNEFSVLLSEALYTGKAIGLSYGPAGLRHSLGHIISVWGADLDADGNVVAIYVTDSDDKKLTIGDERVGLKRYKISTDDEGRLRLTAYEETHNTGGQVRGLWTLDTGKQAWADYFDKTEQTGTDQAEQ |  |  |  |  | 724 | 389 | 0 | 313
7 | PRT-364 (protein) MSQTEDSESLQRLRDIEDFQAEKKKQNVVYTKWLDGVDVKDHDFRKIVDGNEAYYATPLLNGRGFYDINKDFNRDSDKCAAAVAANMFHYWLDRNRDNVDRFLRQNPEKHGIIELPDGQLKLSDFLNTYESDDGYRDKSKLFDFISENFNGPVWTDKLLDNYINGYAYNYKYGRTIEDPTKNTSKINFFKEVFNEKILTNNHSIRNQNELSVLLSEALYTGKAIGLSYGPAGLRHSLGHIISVWGADLDADGNVVAIYVTDSDDKKLTIGDERVGLKRYKISTDDEGRLRLTAYEETHNTGGQIRGLWTLDTGKQAWADYFDKTEQTGTDQAEQ |  |  |  |  | 863 | 439 | 0 | 334
8 | PRT-349 (protein) MSQTEDSESLQRLRDIEDFQAEKKDQNVVYTKWLDGVDVKDHDFRKIVDGNIAYYATPLLNGRGLYDINKDFNRDSDKCAAAVAANMFHYWLDINRDNVDRFLRQNPEKHGIIELPDGQLKLSDFLNTYESDHGYRDKSKLFDFISENFNGPVWTDKLLDNYINGYAYNYKYGRTIEDPTKNTSKINFFKEVFNEKILTNNHSIRNQNELSVLLSEALYTGKAIGLSYGPAGLRHSLGHIISVWGADLDADGNVVAIYVTDSDDKKLTIGDERVGLKRYKISTDDENRLRLTAYEETHNTGGQVRGLWTLDTGKYAWADYFDKTEQTGTDQAEQ |  |  |  |  | 677 | 215 | 0 | 286
9 | PRT-356 (protein) MSQTEDSESLQRLRDIEDFQAEKEKQNVVYTKWLDGVDVKDHDFRKIVDGNSAYYATPLLNGRGFYDINKDFNRDSDKCAAAVAANMFHYWLDRNRDNVDRFLRQNPEKHGIIELPDGQLKLSDFLNTYESDDGYRDKSKLFDFISNNFNGPVWTDKLLDNYINGYAYNYKYGRTIEDPTKNTSKINFFKEVFNEKILTNNHSIRNQNEFSVLLSEALYTGKAIGLSYGPAGLRHSLGHIISVWGADLDADGNVVAIYVTDSDDKKLTIGDERVGLKRYKISTDDEGRLRLTAYEETHNTGGQVRGLWTLDTGKQAWADYFDKTEQTGTDQAEQ |  |  |  |  | 780 | 418 | 0 | 289
10 | PRT-341 (protein) MTITSVWTKGVTPPTPEDFRENNEDVLHAPYLANQGWYDITKAFDGKDNLLCGAATAGNMLHWWFDQNKEEIERYLKKHPEKQKIIFNNQEWFDVKAAIDTKDSQTNSKLFNYFRDKAFPNLSARQLGVMPDLVLDMFINGYYLNLPKTQSTDVNRPYQDKDKRGGIFDAVFTRGDQTTLLTARHDLKNKGLNEISDLIKQELTEGKALALSHTYANVSINHVINLWGADFDAEGNLEAIYVTDSDANASIGMKKYAVGVNAHGKVAISAKKIEGDNIGAQVLGLFTLSTGQDIWQKLS |  |  |  |  | 832 | 199 | 0 | 318
11 | PRT-446 (protein) MVTSVWTKGVTPPTDFIKGEDVFHAPYKAGQGWYDITKTFNGKDDLLCGAATAGNMLHWWFDQNKDQIEAYLKEHPEKQKINFNGEQMFDVKEAIDTKDDQTNSKLFEYFKEKAFPYLSTKHLGVFPDHVLDMFINGYRLSLTNHGPTPVKEGSKDPRGGIFDAVFTRGDQSKLLTSRHDFKEKTLKEISDLIKQELTEGKALALSHTYANVRINHVINLWGADFDSNGNLEAIYVTDSDSNASIGMKKYFVGVNSAGKVAISAKEIEDDNIGAQVLGLFTLSTGQDIWNQTNLEHHHHHH | 1130 | 427 | 0 | 0 |  |  |  | 
12 | PRT-480 (protein) MITSVWTKGVTPPTDFIYGEDVLHAPYKAGQGWYDITKAFDGGDDLLCGAATAGNMLHWWFDQNKEQIENYLKKHPEKQKINFNGEQMFDVKEAIDTKDSQTNSELFNYFKEKAFPYLSTKHLGVFPDHVIDMFINGYRLSLTNHGPTPVKRGSKDPRGGIFDAVFTRGDQSKLLTNRHDLKNKTLNEISQLIKQELTEGKALGISHTYANVRINHVINLWGADFDAEGNLEAIYVTDSDSNASIGMKKYFVGVNSNGKVAISAKEIEEDNIGAQVLGLFTLSTGQDIWNQTNLEHHHHHH | 846 | 325 | 0 | 0 |  |  |  | 
13 | PRT-456 (protein) MITSVWTKGVTPPTDFIKGEDVFHAPYKAGQGWYDITKAFDGGDDLLCGAATAGNMLHWWFDQNKDQIEAYLKEHPEKQKINFNGEQMFDVKEAIDTKDDQTNSELFNYFKEKAFPYLSTKHLGVFPDHVLDMFINGYRLSLTNHGPTPVKEGSKDPRGGIFDAVFTRGDQSKLLTSRHDLKNKTLNEISQLIKQELTEGKALALSHTYANVRINHVINLWGADFDAEGNLEAIYVTDSDSNASIGMKKYFVGVNSAGKVAISAKEIEDDNIGAQVLGLFTLSTGQDIWNQTNLEHHHHHH | 1170 | 497 | 0 | 0 |  |  |  | 
14 | PRT-468 (protein) MITSVWTKGVTPPTDFIKGEDVFHAPYKAGQGWYDITKAFDGGDDLLCGAATAGNMLHWWFDQNKDQIERYLKEHPEKQKINFNGEQMFDVKEAIDTKDSQTNSELFNYFKEKAFPYLSTKHLGVFPDHVLDMFINGYRLSLTNHGPTPVKEGSKDPRGGIFDAVFTRGDQSKLLTSRHDLKNKTLNEISQLIKQELTEGKALGLSHTYANVRINHVINLWGADFDAEGNLEAIYVTDSDSNASIGMKKYFVGVNSAGKVAISAKEIKEDNIGAQVLGLFTLSTGQDIWNQTNLEHHHHHH | 957 | 385 | 115 | 66 |  |  |  | 
